Test: soluble on expression in E. coli; label from the status in PepcDB or PDB records

Sequence	soluble on expression in E. coli
MGSDKIHHHHHHMYTQDNVISNNKRLSSFQLSKMHTFEVAARHCSFSLAAEELSMTPSAISHRINALESELGILLFKRSHRKIELTKEGERIYIAVKSSFSSLNQEILEVKSNEISGELTVYSRPSFAQCWLVPRIAGFQKQYPAISLNILTGNENINFHGHGIDVAIYFDEKQPSKLYCQDIMTETIVPVCSPEYAEEFDLIGKINNLSQCTLLHDNQAWGYDSNTDEWALWANNFNINCLASSASIRFDRSDLAVIAAMNNAGVAMGRESFISNQIKRGELIKPFIDKKILCPQRYYVATLPNNKNTKIELFIEWLKNEVQNEGGESIV	not soluble
MGSDKIHHHHHHMYTREELMEIVSERVKKCTACPLHLNRTNVVVGEGNLDTRIVFVGEGPGEEEDKTGRPFVGRAGMLLTELLRESGIRREDVYICNVVKCRPPNNRTPTPEEQAACGHFLLAQIEIINPDVIVALGATALSFFVDGKKVSITKVRGNPIDWLGGKKVIPTFHPSYLLRNRSNELRRIVLEDIEKAKSFIKKEG	soluble
MGSDKIHHHHHHNVYSLPANGGRLIGELQTHVVEKGDYFKTIADKYNIGILELMETNPGVDPFLPTPGTQLVIPTQMLLPDVPRKGIVINLPELRLYYFPKNGREVHVFPVGIGRIGRETPEMTTKIKARIPNPSWTPPASLRAEHLRERGEVLPPVVPAGPDNPLGKYAMQLSYGDGSYLIHGTNKDFGIGMRVSAGCIRLNPDDIEWLFHQAKYGDSVRVINQTVKIATEPDGRQIIEVHSPLSKTEDQPREKVISLSSKVVKFISQESVDNTKANDALLTQNGIPMVISHPPLTAAQDLEITP	not soluble
MGSDKIHHHHHHNYENINSNPYEAPDLSADGYALGSAMNNLAGCVVSPDVNTAQFTDCLLGGPLGGYFADSNAGFTETISNFNPKDDWSRVFLKSDKIIPTLYSNLTQVKLVSQNTNDPVPYAIAQVIKVAAMHRVTDAFGPIPYSQIGANGEIATPYDSQEVTYNTFFDELNAAIATLNENSNEQLVPTADYIYKGDVKKWIRFANSLKLRLAIRIAYANPVKAQQMAEEAVNPANGGVIESNADNATWNYFETSQNPIYVATRYNQVQTSDHGGVPCLTGGDTHAAADIICYMNGYKDNRREKFFTKSEWAGQDYVGMRRGIVIPELKTTGHKYSGVNIAPTSPLYWMNAAEVAFLRAEGQAVFNFSMGGTAESFYNQGIRLSFEQWGADGVEDYLKDDVNKPTAYTDPAGTNTYQNALSNITIKWNDSADKEEKQERIIVQKWIANWQLGNEAWADFRRTGYPKLIPVKENKSGGVVDSEKGARRMPYPLDEFVSNKANVEYAIANYLHGADNMATDVWWASKK	not soluble
MGSDKIHHHHHHPSLTCVMEGKDIEDWSCCPTPWTSFQSSCYFISTGMQSWTKSQKNCSVMGADLVVINTREEQDFIIQNLKRNSSYFLGLSDPGGRRHWQWVDQTPYNENVTFWHSGEPNNLDERCAIINFRSSEEWGWNDIHCHVPQKSICKMKKIYI	not soluble
MGSDKIHHHHHHQTIDETAIIARAQAIATRINEFLATRERNLLAKILALGGVQQAEIFEIQVKARLHPADVERVLAVLNHPAITVTKTSERTQYDTYFIFANGERIRIREDHRTDPGARPQPKYTLTLMAEARRFDHPKAMMLSRARYTAPADHTVRFYREYFQPDRIEELEKQRRRWRILYRDHDFAINLDTLIGQADRGPFLEIKSRTWSRRDAERRAELISELLELIGISDDALVLQEYVELVA	not soluble
MGSDKIHHHHHHRGDKPVVWNHQDRRFEVIQQKKQRQRLDSYRRIVIDTTAPVTIRQGDTRQVTLHNFSSANNRLRARVSQGTLTVTGGSTTMNYVLGFGSDGGGINFSSNGDKRGVVITVPKTQRLDSIISKREGGELSLKKMTVKQISVKSTDDVSFNDVRVTKTLAVDTTAGDISGKQVKADRVDLTAEEGDVSLTQSHFKAVNNRVISGDGDVRLATTQLGGGHVVASDGDIQLHDNRLMGTLKATATDGDISARIAPAAGAKVTTTDSDDEIHVVGHSRSSGYWLRRAASAQYRLSTDDGDITVTQ	not soluble
MGSDKIHHHHHHRTKDQYYELRDFALGTSVRIVVSSQKINPRTIAEAILEDMKRITYKFSFTDERSVVKKINDHPNEWVEVDEETYSLIKAACAFAELTDGAFDPTVGRLLELWGFTGNYENLRVPSREEIEEALKHTGYKNVLFDDKNMRVMVKNGVKIDLGGIAKGYALDRARQIALSFDENATGFVEAGGDVRIIGPKFGKYPWVIGVKDPRGDDVIDYIYLKSGAVATSGDYERYFVVDGVRYHHILDPSTGYPARGVWSVTIIAEDATTADALSTAGFVMAGKDWRKVVLDFPNMGAHLLIVLEGGAIERSETFKLFERE	soluble
MGSDKIHHHHHHSAGPIHPASLDIDNGNGTNVFIAYEWVDYDYKTYTENGLALDEAWGHLYMAIVAVAGVHVTGYVHNDIDRGNFVINSDGILKLTDFGMSSSKDASCSGKALFFPPETFQPGFFQRKRDASALARVQARDLFQVGNTMLEAILGKEGEIYQAERYGLKLAMVKKKPDFKQDLKVVIQDEKKFRKSFGKIGTKKIEDKLCVDPSRQAEVVKNLARWGLQNSLSL	not soluble
MGSDKIHHHHHHSCLDDDDSSSDSLVISTINLISPDSKDFYFTLDDGKTMFPSNGNGWISDKNKDGQRAFVIFKELEEPVKGYDYNIQVREIKEILTKEIVTMGEGENTEEKIGDDKINSTYMWITQDKKYLTIEFQYYGTHSEDKKHFLNLVINNKEAEPAADDANDEYIDLEFRHNDEGDTADRLGEGYISFKLDKIQDQMKGKKGLRIRVKTLYNGEKFYEVKFPSSN	not soluble
MGSDKIHHHHHHSKATGRGSGGMIGGLVASKVDPDIMSNLINNRPTVLVTGTNGKSTTTRMLAAAMRSTYTVATNEGGDNMDAGIISALLAGRNASHVVLEVDELHVPAAIERLKPDALVLLNLSRDQLDRVGEINKIERVLRDAVRSRPEMTVIANCDDVLVTSVAFDAENVIWVGAGTGWQGESATCPRTESRILHDGRHWSAEKTLLDGRTFARPTPSWEVDGDTIHSPSGDLTLDLNLPGQANRGNAAQAIAASTVFNVPVSSALPAVNSVNNVAGRYSTITVGEHKVHLLLAKNPAGWQEALSMVDRTADGLVIVVNGQVADGEDLSWLWDVRFEDFENLSVKASGERGTDLAVRLTYAEIDHELISNPVDAIAACPPGRIEVLANYTAFRDLKKALEKGTEQ	not soluble
MGSDKIHHHHHHSLSGRAQTEKPSALVKVGDYRASTDFLNLSAYYQTIRPVTVKVAYVSTYKTQHTIMQKLTLPAGLTVAGNLTTTKHGSYLVPSLQLYLARLSYPALQNSAKANYTLDPGTSAYSPQATISDTTKLRAFKRVAAPDYMPGYSHGDLYIGGAKAALSPVEPTTKSIRITPDGYVEVLKYDTKANAGLGFYQKPVSLAKIVKTRFHDPNRTLYLNHPLASVKTKAITQNGQTRYRLTLKNLHTPQHIAGDPETGTAGTFDSLYSIGGTTYYTFIGYDGVSN	not soluble
MGSDKIHHHHHHVAISIAGGVRPGKVIEIERRLYKQLIVGKHKANAMPDELSAELEESANKLDIERKALKMRLEKQAKEKSVYVEVSALLTHTVNNAIEHQLAHPQMILEASAISENQILLLDLLLHPDLNINRLRPIIESINWLSRDLINLINSPASRHRRPKHGDVQVTDIKLVLNYIGIEHLRLLIPYFCLRNWLPSGNANLLWITRKLWRYSMVSAIAAQTLAELHNEEPGLAYSCALMYQFSTSIILSQSGRIFDNTWGTWLREASHSREKQVYDAIMATDFPAEEVLGQVLLHSHRLNWQLLSLLKFDDSPITQVLKELDHDYHFTELSADAAIVAKASCYAKVLLLEEQQQIDPQEKRIMFDYYQFSAQELIRLKGQNFRKLDLL	not soluble
MGSDKIHHHHHHVDGSTMIARNDDTFLPLTPQRFYVHPAEKNQPKRTWVSNQNGFTAPIPSDGYRYLATPNVEVDKEGVYAESGFNEKNVAMSATESVYGNPAALAIDPLVQNGLAEDSLQTMVLPYINSARDGVRYLGQLIKQYGSPEGNGVLFSDHDEVWYMEIVTGHHWVAQRIPDDAYAITANQVAIQQVSFDDPDNFMFSDGIQDFVTENHLNPDQAGWNFRHIFGTDTEKDRHYNTPRVWFGQRYLNPEIEQDPQSSDLPFICRTSHKISVEDVEYILSSHYNETKYDPFGQGAEADRLKFRPISMNRTQNSHVLQLRNDVPADRSAIFWLCFGVPAFSPYVPFFANVTDTDPTYSDTPVRLDDQSAYWMYRKLSMIVESHYSHFIEQDTDYLTATKQQLRTHVAKTLADAAALTGDELTAYLTAQNHQIVAAMRQSTTQFTNELIEKGLTLSKLTFNMDKNL	not soluble
